The nanobody polyreactivity screen of Harvey et al. (2022)

Assay: yeast display, Sf9 membrane polyspecificity reagent, FACS + sequencing; frameworks hold sequencing errors
How it was run: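 Genes from sorted yeast were amplified by colony PCR, read by MiSeq 2 × 250 sequencing and filtered on CDR length. These cells carried a synthetic nanobody library in Saccharomyces cerevisiae BJ5465 and were sorted by FACS into low and high (top ~1%) gates on anti-HA and streptavidin fluorescence. Polyreactivity is labelled according to the gate of origin.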

Sequence | polyreactivity (PSR sort gate)
QVQLVESGGGLVQAGGSLRLSCAASGSIFAGNAMGWYRQAPGRERELVAGITFGDDSTYYADSVKGRFTISRDNAKNTVYLQMNSLKPEDTAVYYCATDMHPYNYYFYHYWVDAAYDYWGQGTQVTVSS | low polyreactivity
QIQLEESGGGLVQAGGSLRLSCAASGSIFDYNTMGWYSQAPGKERELVAAISSSGGSTYYADSVKGRFTISRDNAKNSVYLQMNSLKPEDTAVYYCAAVNGYQYPPYYFNGYDYWGQGTQVTVSS | low polyreactivity
QVQLEESGGGLVQAGGSLRLSCAASGIIIATYAMGWYRQAPGKERELVAVISNDGSTHYADSVKGRFTISRDNAKNTVYLQMNSLKPEDTAVYYCNAEEIDEASYAYPPLEYDYWGQGTQVTVSS | low polyreactivity
QVQLVESGGGLVQAGGSLRLSCAASGSTFGGYTMGGYRQAPGKERELVADITSSGSTNYADSLKGRFTISRDNAKNSVYLQMNSLKPEDTAVYYCAVRTYPGRFWYWGVDMVYWGQGTQVTVSS | low polyreactivity
QVQLVESGGGLVQAGGSLRLSCASSGFIFVNYAMEWYRQAPGKERELVAAISRNGGRTYYADSVKGRFTISRDNAKNTVYFQMNSLKPEDTAVYYCTAELSGKRDYWGQGTQVTVSS | high polyreactivity
QVQLVESGGGLVQAGGSLRLSCAASGRTFRPYAMGWYRQAPGKEMELVAAIDSSGTSTYYADSVKGRFTISRDTAKNTVYLQMNSLKPEDTAVYYCAKAWPDHWYSRYDYWGQGTQLTVSS | low polyreactivity
QVQLVESGGGLVQAGGSLRLTCAASGSTFWFYAMGWYRQAPGKERELVATITIGGRTYADSVKGRYTISRDNAKNTVYLQMNSLKPEDTAVYYCAARRVRLEYVYGRYDYWGQGTQVTVSS | low polyreactivity
QVQLVESGGGLVQAGGSLRLSCAASGFIFGNYDMEWYRPAPGKERELVAAITNGGGNTYYADSVKGRITISRDNAKNTVYLQMNSLKPEDTAVSYCHPLRYYYWGQGTQVTVSS | high polyreactivity
QVQLVDSGGGLVQAGGSLRLSCAASGSTFYLYAMGWYRQAPGKERELVAVITTDGSTTYADSVKGRFTISRDNATNTVYLEMNSLKPEDTAVYFCAAYGGNGQYYSQYDYWGQGTQVTVSS | low polyreactivity
QVQLGESGGGLVQAGGSLRLSCAASGFIFEHYARGWYRQAPGTDTEFVARISWGGGSTYYADSVKGRFTISRDNAKNTVYLQMNSLKPEDTAVYYCHALEGVYFGYYPSDYWGQGTQVTVAS | low polyreactivity
QVQLVESGGGLVQAGGSLRLSCAASGRISVFNAMGWYRQAPGKERELVAAITSGGSTNYADSVKGRFTISRDNAKNTVYLQMNSLKPEDTAVYYSNADVYHSHEPHYDYWGQGTQVTVSS | low polyreactivity
QVQLVESGGGLVQAGGSLRLSCAASGITFYKNAMGWYRQAPGKERELVAAISSGGGTTYADSVKGRFTISRDNAKNTVYLQMNSLKPEDTAVYYCAADRRYYWYNYWGLGTQVTVSS | high polyreactivity
QVQLVESGGGLVQAGGSLRLSSAGSGRIFGYYAMGGYRQAPGTETELVAAISSNGGSTYYADSVKGRFTISRDNANNTVYLQMNSLQPEDTAVYYCKVYFYSRHYFYRGDYWGQGTQVTVSS | high polyreactivity
QVQLVESGGGLVQAGRSLRLSCAASGFTFIRYDMGWYRQALGKETELVATITRRGGSTYYADSVKGRFTISRDNAKNTVYLQMNSLKPEDTAVYYCNRDYVTYGKYYYWGQGTQVTVSS | high polyreactivity
QVQLVESGGGLVQAGGILRLSCSASGRTLPAYVMGWYRQAPGKERELVAAITSGGGGTYFADSVKGRFTISRDNAKNTVYLQMNSMKPEDTAVYYCATTGNFFHYVYDFDYYYWGQGTQVTLSS | low polyreactivity
QGQLVESGGGLVQAGGSLRLSCAASGRIFGHYAMGWYRQAPGKERELVAAIRWRGGSTYYADSVKGRFTISRDNAKNTVYLQMNSLKPEDTAVYYCARTNNGRFRIVDTRYDYWGQGNQVTVSS | low polyreactivity
QVQLVESGGGLVQAGGSLRLSCAASGSTFLQYAMGWYRQPPGKERELVAAIRFSTGTTYYADSVKGRFTISRDNAKNTVYLQMNSLKPEDTAVYYCNAVGTYRPWFHTYGYWGQGTQVTVSS | high polyreactivity
